In patent publication US20230183665A1, “THERMOSTABLE GLUCOCEREBROSIDASE” (TEIKYO UNIVERSITY, priority 2020, published 2023):
Each block holds one molecule with its values, some of them ahead of it.

Columns and labels:
RGC1 = target: T1, RGC1 (Oryza sativa subsp. japonica, UniProt Q8L7J2); test: Substrate specificity of RGC1: ceramide generated from glucosylceramide or synthetic β-glucoside substrates (Example 3); type: biochemical, rice (Oryza sativa L. cv. Nipponbare); conditions: enzyme RGC1, 12.5 μM substrate, pH 5.5, 37° C., 15 minutes; for Relative activity (%): activity with d18:1(4E)-C8:0-GluCer defined as 100, average of five tests
T1 construct: The resulting solution was used as rice-derived glucocerebrosidase (RGC1); from tissue; host or cells: stems of rice (Oryza sativa L. cv. Nipponbare)
T1 sequence (Q8L7J2 38-521 limits assumed): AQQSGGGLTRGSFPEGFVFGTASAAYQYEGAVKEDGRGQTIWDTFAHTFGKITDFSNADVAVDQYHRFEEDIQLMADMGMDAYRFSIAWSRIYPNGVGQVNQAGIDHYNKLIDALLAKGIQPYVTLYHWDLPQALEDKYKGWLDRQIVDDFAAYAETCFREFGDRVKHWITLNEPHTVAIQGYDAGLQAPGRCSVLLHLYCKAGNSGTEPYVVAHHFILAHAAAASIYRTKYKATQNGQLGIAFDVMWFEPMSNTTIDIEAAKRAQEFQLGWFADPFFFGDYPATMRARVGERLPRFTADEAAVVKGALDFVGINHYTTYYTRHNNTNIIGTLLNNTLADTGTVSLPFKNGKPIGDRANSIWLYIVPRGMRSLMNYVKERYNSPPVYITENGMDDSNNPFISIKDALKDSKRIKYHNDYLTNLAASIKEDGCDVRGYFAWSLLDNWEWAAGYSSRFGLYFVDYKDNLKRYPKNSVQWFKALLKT
Method: (§1) The glucocerebrosidase activity of the fraction was measured as follows: a predetermined amount of sample was added to a 50 mM acetate buffer solution (pH 5.5) containing 100 μM glucosylceramide (cerebroside B), 0.1% Tween 20, and 0.05% sodium cholate, and incubated at 37° C. for 15 minutes. Subsequently, a 4-fold amount of ethanol was added to the obtained reaction solution, mixed therewith, and then centrifuged at 15000 rpm for 20 minutes. The centrifuged supernatant was subjected to high-performance liquid chromatography analysis. In the high-performance liquid chromatography analysis, the sample was injected to TSKgel ODS-120T column (4.6 mm×30 cm), and a solvent having an ethanol concentration of 83% was flowed at a flow rate of 0.8 mL/min, followed by detection in a UV detector (ultraviolet absorption wavelength: 215 nm) to thereby measure the amount of ceramide newly generated through enzymatic reaction. The amount of ceramide was determined by using, as a standard, ceramide generated from cerebroside B by imiglucerase (manufactured by Sanofi S. A.), human-derived glucocerebrosidase. The molecular weight of the generated ceramide was examined by negative LC-MS (manufactured by Agilent Technologies, Inc.) to thereby confirm that it was ceramide generated from cerebroside B (ESI-MS m/z: 564.5[M-H]^−). Glucocerebrosidase activity per mL of the enzyme solution was calculated when the amount of the enzyme that generated 1 μmol of ceramide for 1 minute in the enzymatic reaction solution was defined as 1 unit (U).
RGC1 obtained in Example 2 was added to 12.5 μM glucosylceramide (one of the 12 animal-derived, plant-derived, or filamentous fungus-derived ones in Table 2 below) or synthetic β-glucoside, and a 50 mM acetate buffer solution (pH 5.5) containing 0.1% Tween 20 and 0.05% sodium cholate, and incubated at 37° C. for 15 minutes. Subsequently, a 4-fold amount of ethanol was added to the obtained reaction solution, mixed therewith, and then centrifuged under a condition of 15000 rpm for 20 minutes. The amount of ceramide in the supernatant was measured by high-performance liquid chromatography using various reverse-phase columns to thereby determine glucocerebrosidase activity. The amount of ceramide was determined by using, as a standard, ceramide generated from the glucosylceramide by imiglucerase. The glucocerebrosidase activity was determined as relative activity when activity in the case of using animal-derived glucosylceramide d18:1(4E)-C8:0-GluCer as a substrate was defined as 100 (rightmost column of Table 2 below). This test was conducted five times, and average relative activity was determined therefrom.

[1] = Thermostability: relative residual glucocerebrosidase activity after incubation at pH 5 and pH 7 (Examples 6, 13); type: physicochemical; conditions: 45° C.; pH 5 for 1 to 31 hours, pH 7 for 0.3 to 5 hours; FIGS. 3 and 4
Method: The glucocerebrosidase activity of the fraction was measured as follows: a predetermined amount of sample was added to a 50 mM acetate buffer solution (pH 5.5) containing 100 μM glucosylceramide (cerebroside B), 0.1% Tween 20, and 0.05% sodium cholate, and incubated at 37° C. for 15 minutes. Subsequently, a 4-fold amount of ethanol was added to the obtained reaction solution, mixed therewith, and then centrifuged at 15000 rpm for 20 minutes. The centrifuged supernatant was subjected to high-performance liquid chromatography analysis. […] The amount of ceramide was determined by using, as a standard, ceramide generated from cerebroside B by imiglucerase (manufactured by Sanofi S. A.), human-derived glucocerebrosidase. […] Glucocerebrosidase activity per mL of the enzyme solution was calculated when the amount of the enzyme that generated 1 μmol of ceramide for 1 minute in the enzymatic reaction solution was defined as 1 unit (U).
RGC1 obtained in Example 2 and imiglucerase were each incubated at pH 5 simulating lysosome (50 mM acetate buffer solution (pH 5.0) containing 0.1% Triton X-100 and 0.05% sodium cholate) at 37° C. for 6 to 106 hours or at pH 7 simulating cytoplasm (50 mM potassium phosphate buffer solution (pH 7.0) containing 0.1% Triton X-100 and 0.05% sodium cholate) at 37° C. for 4 to 48 hours. […] This test was conducted three times, and an average value was determined therefrom. […]

[2] = Optimum temperature for glucocerebrosidase activity (Examples 5, 12, 20); type: biochemical
Method: as §1
RGC1 obtained in Example 2 and imiglucerase were each added to a 50 mM acetate buffer solution (pH 5.5) containing 100 μM glucosylceramide (cerebroside B), 0.1% Tween 20, and 0.05% sodium cholate, and incubated at each temperature for 15 minutes. Subsequently, a 4-fold amount of ethanol was added to the obtained reaction solution, mixed therewith, and then centrifuged under a condition of 15000 rpm for 20 minutes. The supernatant was subjected to high-performance liquid chromatography analysis to measure the amount of ceramide generated through enzymatic reaction. The high-performance liquid chromatography analysis was carried out in the same manner as in Example 2. The amount of ceramide and enzymatic activity were also calculated in the same manner as in Example 2. A temperature that attained the highest glucocerebrosidase activity was regarded as the optimum temperature. This test was conducted three times, and an average value was determined therefrom.
The optimum temperatures for the glucocerebrosidase activity of SGC1 obtained in Example 11 and imiglucerase were confirmed by the same method as in Example 5.
Enzyme extracts derived from various plants which were obtained in accordance with Example 19, the purified rice-derived RGC1 mentioned above and the purified soybean-derived SGC1 mentioned above were each added to a 50 mM sodium acetate buffer solution (pH 5.5) containing 100 μM glucosylceramide (cerebroside B), 0.1% Tween 20, and 0.05% sodium cholate, and incubated at each temperature for 15 minutes. Subsequently, a 4-fold amount of ethanol was added to the obtained reaction solution, mixed therewith, and then centrifuged at 15000 rpm for 20 minutes. The supernatant was subjected to high-performance liquid chromatography analysis to measure the amount of ceramide generated through enzymatic reaction. The high-performance liquid chromatography analysis was carried out in the same manner as in Example 5. The amount of ceramide and enzymatic activity were also calculated in the same manner as in Example 5. As a result, a temperature that attained the highest glucocerebrosidase activity was regarded as the optimum temperature. This test was conducted three times, and an average value was determined therefrom.

[3] = Example 12, same method as Example 5
[4] = Example 20, 100 μM cerebroside B, pH 5.5, 15 minutes at each temperature, average of three tests

reaction of RGC1 with the substrate (in words) (RGC1): rarely reacted
Molecule: CCCCCCCCCCCCC/C=C/[C@@H](O)[C@H](CO[C@@H]1O[C@H](CO)[C@@H](O[C@@H]2O[C@H](CO)[C@H](O)[C@H](O[C@]3(C(=O)O)C[C@H](O)[C@@H](NC(C)=O)C([C@H](O)[C@H](O)CO)O3)[C@H]2O)[C@H](O)C1O)NC(=O)CCCCCCCCCCCCCCCCC (some centres unmarked) [d18:1(4E)-C18:0-GM3]

Relative activity (%) (RGC1): 116.7%
Molecule: CCCCCCCCCCCCCC[C@@H](O)C(=O)N[C@@H](CO[C@@H]1O[C@H](CO)[C@@H](O)[C@H](O)[C@H]1O)[C@H](O)/C=C/CC/C=C(\C)CCCCCCCCC [d19:2(4E,8E,9Me)-C16h:0-GluCer, (4E,8E)-N-D-2′-hydroxypalmitoyl-1-O-β-D-glucopyranosyl-9-methyl-4,8-sphingadienine]

reaction of RGC1 with the substrate (in words) (RGC1): rarely reacted
Relative activity (%) (RGC1): 2.5%
Molecule: O=[N+]([O-])c1ccc(O[C@@H]2O[C@H](CO)[C@@H](O)[C@H](O)[C@H]2O)cc1 [pNP-β-glucoside, 4-nitrophenyl-β-D-glucopyranoside]

Relative activity (%) (RGC1): 113.2%
Molecule: CCCCCCCCCCCCCC/C=C/[C@@H](O)C(=O)N[C@@H](CO[C@@H]1O[C@H](CO)[C@@H](O)[C@H](O)[C@H]1O)[C@H](O)/C=C/CC/C=C(\C)CCCCCCCCC [d19:2(4E,8E,9Me)-C18h:1-GluCer, (4E,8E)-N-D-2′-hydroxy-(E)-3′-octadecenoyl-1-O-β-D-glucopyranosyl-9-methyl-4,8-sphingadienine]

B1: SGC1: soybean-derived glucocerebrosidase purified from soybean stems; identical to β-glucosidase 40, belongs to GH1; SEQ ID NO: 2 (protein)
chain: MAFRGGTMLILTMMALLEIQICSSEINRGNFPNGFVFGTASSAFQYEGAVKEDGRGPSVWDTFSHTFGKIIDFSNADVAVDQYHRYEEDIQLMKDMGMDAYRFSISWSRIFPNGYGQINQAGVDHYNKLINALLAKGIEPYVTLYHWDLPQALENKYSGWLNASIIMDFATYAETCFQKFGDRVKHWITFNEPHTFATQGYDVGLQAPGRCSILLHLFCRAGNSATEPYIVAHNVLLSHATVADIYRKKYKKIQGGSLGVAFDVIWYEPLTNTKEDIDAAQRAQDFQLGWFLDPLMFGDYPSSMRTRVGSRLPKFSQSEAALVKGSLDFVGINHYTTFYAKDNSTNLIGTLLHDSIADSGAVTLPFNGTKAISERASSIWLYIVPQSMRSLMIYIKQKYGNPPVYITENGMDDPNSIFISIKDALKDEKRIRYHTGYLSYLLASIKDGCNVKGYFVWSLLDNWEWSAGYTSRFGLYFVDYKDNLKRYPKQSVEWFKNFLKPTK
modifications: Oryza sativa L. cv. Nipponbare
stability (relative residual activity) compared with imiglucerase [1]: evidently much superior in stability to imiglucerase
Optimum temperature (° C.) [2, 3]: 64.0 °C
Optimum temperature (° C.) [2, 4]: 64.0 °C

B2: Imiglucerase: human-derived glucocerebrosidase produced in Chinese hamster ovary cells by gene recombination (Sanofi S. A.), belonging to GH30 (protein, UniProt P04062 40-536, looked up)
Lysosomal acid …: ARPCIPKSFGYSSVVCVCNATYCDSFDPPTFPALGTFSRYESTRSGRRMELSMGPIQANHTGTGLLLTLQPEQKFQKVKGFGGAMTDAAALNILALSPPAQNLLLKSYFSEEGIGYNIIRVPMASCDFSIRTYTYADTPDDFQLHNFSLPEEDTKLKIPLIHRALQLAQRPVSLLASPWTSPTWLKTNGAVNGKGSLKGQPGDIYHQTWARYFVKFLDAYAEHKLQFWAVTAENEPSAGLLSGYPFQCLGFTPEHQRDFIARDLGPTLANSTHHNVRLLMLDDQRLLLPHWAKVVLTDPEAAKYVHGIAVHWYLDFLAPAKATLGETHRLFPNTMLFASEACVGSKFWEQSVRLGSWDRGMQYSHSIITNLLYHVVGWTDWNLALNPEGGPNWVRNFVDSPIIVDITKDTFYKQPMFYHLGHFSKFIPEGSQRVGLVASQKNDLDAVALMHPDGSAVVVVLNRSSKDVPLTIKDPAVGFLETISPGYSIHTYLWRRQ
modifications: imiglucerase
notes: human-derived glucocerebrosidase produced in Chinese hamster ovary cells by gene recombination (Sanofi S. A.), belonging to GH30
Optimum temperature (° C.) ([2]; Example 5, 100 μM cerebroside B, pH 5.5, 15 minutes at each temperature, average of three tests): 42.5 °C
Optimum temperature (° C.) [2, 3]: 42.5 °C
Optimum temperature (° C.) [2, 4]: 42.5 °C
